Reference: PMC3166620

How the values were obtained:
[1] = target: Biotinylated CHIP (UniProt Q9UNE7); experiment: BLI
[2] = target: Biotinylated Ub-CHIP (monoubiquitinated CHIP) (UniProt P0CG48); experiment: BLI

Chain of UniProt Q9UNE7 (Q9UNE7 whole entry): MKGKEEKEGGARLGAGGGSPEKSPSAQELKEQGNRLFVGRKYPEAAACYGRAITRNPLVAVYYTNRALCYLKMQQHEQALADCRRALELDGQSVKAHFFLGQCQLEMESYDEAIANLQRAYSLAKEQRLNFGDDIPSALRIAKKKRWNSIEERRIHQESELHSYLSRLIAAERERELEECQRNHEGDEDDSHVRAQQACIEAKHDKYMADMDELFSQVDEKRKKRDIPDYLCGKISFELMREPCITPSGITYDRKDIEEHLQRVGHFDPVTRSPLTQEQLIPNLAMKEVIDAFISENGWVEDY

## ataxin-3, polyglutamine-expanded (Q80), recombinant (from UniProt P54252 1-361) (enzyme)
[1]
  Kd: 390 nM
[2]
  Kd: 750 nM

## ataxin-3, normal (Q22), recombinant (from UniProt P54252 1-361) (enzyme)
[1]
  Kd: 2200 nM
[2]
  Kd: 120 nM
